Data from patent US20250340646A1.

Tests used:
[1] = target: PD-L1 on PD-L1 aAPC/CHOK1 cells (Promega J1250); experiment: cell-based or functional assay
human PD-L1-Fc (human) [2] = target: human PD-L1-Fc (human) (UniProt Q9NZQ7); experiment: SPR, PD-L1-Fc captured, scFv analyte
[3] = target: PD-L1 biotinylated (PD-1/PD-L1 TR-FRET assay kit, BPS 72038) (Homo sapiens (Human)) (UniProt Q9NZQ7); experiment: HTRF competition, competitor PD-1-Eu
human PD-L1-Fc (human) [4] = target: human PD-L1-Fc (human) (UniProt Q9NZQ7); experiment: ELISA, coated PD-L1-Fc, anti-FLAG HRP
[5] = target: full-length human PD-L1 on K562 cells (human) (UniProt Q9NZQ7); experiment: FACS, PD-L1/K562 cells

B1: 2018EP164-F04 scFv (scFv, part only; not given: linker and tags, not shown: small tags and cut ends)
scFv, part: QVQLQQWGAGLLKPSETLSLTCAVYGGSFSGYYWSWIRQPPGKGLEWIGEINHSGSTNYNPSLKSRVTISVDTSKNQFSLKLSSVTAADTAVYYCARGRRLRYFDWAAYNWFDPWGQGTLVTVSSQSALTQDPAVSVALGQTVRITCQGDSLRSHYASWYQQKPGQAPVVVVYDNSDRPSGIPDRFSGSNSGNTATLTISRVEVGDEADYYCQVWDSSSDHYVFGTGTKV
Jurkat NFAT reporter assay EC50 [1]: 129 nM
Kd (human PD-L1-Fc (human) [2]): 2.94 nM
koff (human PD-L1-Fc (human) [2]): 0.000722 s⁻¹
kon (human PD-L1-Fc (human) [2]): 245000 M⁻¹ s⁻¹
IC50 [3]: 173 nM
EC50 (human PD-L1-Fc (human) [4]): 1.27 nM

B2: 2018EP161-F04 scFv (scFv, part only; not given: linker and tags, not shown: small tags and cut ends)
scFv, part: QMQLVQSGAEVKKPGATVKISCKVSGYTFTDYYMHWVQQAPGKGLEWMGLVDPEDGETIYAEKFQGRVTITADTSTDTAYMELSSLRSEDTAVFYCATDGSGSYYLTLGQGTLVTVSSNFMLTQPSSLSASPGASASLTCTLPSGINVGPYGIFWYQQKPGSPPQYLLRYKSNSENHQGSGVPSRFSGSEDASANVGILLISGLQSEDEADYYCMIWHSSAWVFGGGTKVTVL
EC50 [5]: 5.8 nM
